± gives the uncertainty stated by the source.
B1: Serine/threonine-protein kinase LATS1, residues 98 to 141; numbered along this chain, O95835 (parent)
chain: TSEVNPQMLQDLQAAGFDEDMVIQALQKTNNRSIEAAIEFISKM

Variants of: B1
Assay: abundance fitness (aPCA) (normalised: wild type 0, dead -1); higher = more abundant; growth selection in yeast, the domain comes from the species named
Settings: Homo sapiens

Row | Variant | abundance fitness
1 | TSEVNPQMLQHLQAAGFDEDMVIQALQKTNNRSIEAAIEFISKM [D11H] | -0.182 ± 0.065
2 | TSEVNPQMLQILQAAGFDEDMVIQALQKTNNRSIEAAIEFISKM [D11I] | -0.083 ± 0.055
3 | TSEVNPQMLQKLQAAGFDEDMVIQALQKTNNRSIEAAIEFISKM [D11K] | 0.083 ± 0.1
4 | TSEVNPQMLQLLQAAGFDEDMVIQALQKTNNRSIEAAIEFISKM [D11L] | -0.153 ± 0.036
5 | TSEVNPQMLQMLQAAGFDEDMVIQALQKTNNRSIEAAIEFISKM [D11M] | -0.154 ± 0.047
6 | TSEVNPQMLQNLQAAGFDEDMVIQALQKTNNRSIEAAIEFISKM [D11N] | -0.004 ± 0.14
7 | TSEVNPQMLQPLQAAGFDEDMVIQALQKTNNRSIEAAIEFISKM [D11P] | -1.08 ± 0.15
8 | TSEVNPQMLQQLQAAGFDEDMVIQALQKTNNRSIEAAIEFISKM [D11Q] | 0.092 ± 0.04
9 | TSEVNPQMLQRLQAAGFDEDMVIQALQKTNNRSIEAAIEFISKM [D11R] | -0.134 ± 0.035
10 | TSEVNPQMLQSLQAAGFDEDMVIQALQKTNNRSIEAAIEFISKM [D11S] | -0.021 ± 0.043
11 | TSEVNPQMLQTLQAAGFDEDMVIQALQKTNNRSIEAAIEFISKM [D11T] | -0.048 ± 0.05
12 | TSEVNPQMLQYLQAAGFDEDMVIQALQKTNNRSIEAAIEFISKM [D11Y] | -0.086 ± 0.055
13 | TSEVNPQMLQDAQAAGFDEDMVIQALQKTNNRSIEAAIEFISKM [L12A] | -0.607 ± 0.049
14 | TSEVNPQMLQDDQAAGFDEDMVIQALQKTNNRSIEAAIEFISKM [L12D] | -0.469 ± 0.1
15 | TSEVNPQMLQDEQAAGFDEDMVIQALQKTNNRSIEAAIEFISKM [L12E] | -0.477 ± 0.046
16 | TSEVNPQMLQDFQAAGFDEDMVIQALQKTNNRSIEAAIEFISKM [L12F] | -0.737 ± 0.12
17 | TSEVNPQMLQDGQAAGFDEDMVIQALQKTNNRSIEAAIEFISKM [L12G] | -0.57 ± 0.038
18 | TSEVNPQMLQDHQAAGFDEDMVIQALQKTNNRSIEAAIEFISKM [L12H] | -0.573 ± 0.12
19 | TSEVNPQMLQDIQAAGFDEDMVIQALQKTNNRSIEAAIEFISKM [L12I] | -0.364 ± 0.077
20 | TSEVNPQMLQDKQAAGFDEDMVIQALQKTNNRSIEAAIEFISKM [L12K] | -0.658 ± 0.058

Row | Variant | abundance fitness
21 | TSEVNPQMLQDMQAAGFDEDMVIQALQKTNNRSIEAAIEFISKM [L12M] | -0.119 ± 0.081
22 | TSEVNPQMLQDPQAAGFDEDMVIQALQKTNNRSIEAAIEFISKM [L12P] | -0.644 ± 0.12
23 | TSEVNPQMLQDQQAAGFDEDMVIQALQKTNNRSIEAAIEFISKM [L12Q] | -0.594 ± 0.08
24 | TSEVNPQMLQDRQAAGFDEDMVIQALQKTNNRSIEAAIEFISKM [L12R] | -0.715 ± 0.043
25 | TSEVNPQMLQDSQAAGFDEDMVIQALQKTNNRSIEAAIEFISKM [L12S] | -0.616 ± 0.06
26 | TSEVNPQMLQDTQAAGFDEDMVIQALQKTNNRSIEAAIEFISKM [L12T] | -0.636 ± 0.052
27 | TSEVNPQMLQDVQAAGFDEDMVIQALQKTNNRSIEAAIEFISKM [L12V] | -0.562 ± 0.039
28 | TSEVNPQMLQDWQAAGFDEDMVIQALQKTNNRSIEAAIEFISKM [L12W] | -0.951 ± 0.057
29 | TSEVNPQMLQDYQAAGFDEDMVIQALQKTNNRSIEAAIEFISKM [L12Y] | -1.06 ± 0.32
30 | TSEVNPQMLQDLAAAGFDEDMVIQALQKTNNRSIEAAIEFISKM [Q13A] | -0.131 ± 0.042
31 | TSEVNPQMLQDLCAAGFDEDMVIQALQKTNNRSIEAAIEFISKM [Q13C] | 0.037 ± 0.049
32 | TSEVNPQMLQDLDAAGFDEDMVIQALQKTNNRSIEAAIEFISKM [Q13D] | -0.538 ± 0.11
33 | TSEVNPQMLQDLEAAGFDEDMVIQALQKTNNRSIEAAIEFISKM [Q13E] | -0.18 ± 0.04
34 | TSEVNPQMLQDLFAAGFDEDMVIQALQKTNNRSIEAAIEFISKM [Q13F] | -0.536 ± 0.064
35 | TSEVNPQMLQDLHAAGFDEDMVIQALQKTNNRSIEAAIEFISKM [Q13H] | -0.42 ± 0.073
36 | TSEVNPQMLQDLIAAGFDEDMVIQALQKTNNRSIEAAIEFISKM [Q13I] | 0.071 ± 0.064
37 | TSEVNPQMLQDLKAAGFDEDMVIQALQKTNNRSIEAAIEFISKM [Q13K] | 0.084 ± 0.052
38 | TSEVNPQMLQDLLAAGFDEDMVIQALQKTNNRSIEAAIEFISKM [Q13L] | 0.104 ± 0.038
39 | TSEVNPQMLQDLMAAGFDEDMVIQALQKTNNRSIEAAIEFISKM [Q13M] | 0.046 ± 0.06
40 | TSEVNPQMLQDLRAAGFDEDMVIQALQKTNNRSIEAAIEFISKM [Q13R] | 0.059 ± 0.033

Row | Variant | abundance fitness
41 | TSEVNPQMLQDLSAAGFDEDMVIQALQKTNNRSIEAAIEFISKM [Q13S] | -0.127 ± 0.035
42 | TSEVNPQMLQDLTAAGFDEDMVIQALQKTNNRSIEAAIEFISKM [Q13T] | -0.002 ± 0.061
43 | TSEVNPQMLQDLVAAGFDEDMVIQALQKTNNRSIEAAIEFISKM [Q13V] | 0.067 ± 0.038
44 | TSEVNPQMLQDLWAAGFDEDMVIQALQKTNNRSIEAAIEFISKM [Q13W] | -0.851 ± 0.072
45 | TSEVNPQMLQDLYAAGFDEDMVIQALQKTNNRSIEAAIEFISKM [Q13Y] | -0.53 ± 0.054
46 | TSEVNPQMLQDLQCAGFDEDMVIQALQKTNNRSIEAAIEFISKM [A14C] | -0.325 ± 0.053
47 | TSEVNPQMLQDLQDAGFDEDMVIQALQKTNNRSIEAAIEFISKM [A14D] | 0.04 ± 0.072
48 | TSEVNPQMLQDLQEAGFDEDMVIQALQKTNNRSIEAAIEFISKM [A14E] | 0.039 ± 0.039
49 | TSEVNPQMLQDLQFAGFDEDMVIQALQKTNNRSIEAAIEFISKM [A14F] | -0.455 ± 0.079
50 | TSEVNPQMLQDLQGAGFDEDMVIQALQKTNNRSIEAAIEFISKM [A14G] | -0.19 ± 0.032
51 | TSEVNPQMLQDLQKAGFDEDMVIQALQKTNNRSIEAAIEFISKM [A14K] | 0.007 ± 0.059
52 | TSEVNPQMLQDLQLAGFDEDMVIQALQKTNNRSIEAAIEFISKM [A14L] | -0.188 ± 0.036
53 | TSEVNPQMLQDLQMAGFDEDMVIQALQKTNNRSIEAAIEFISKM [A14M] | -0.151 ± 0.058
54 | TSEVNPQMLQDLQPAGFDEDMVIQALQKTNNRSIEAAIEFISKM [A14P] | -0.898 ± 0.15
55 | TSEVNPQMLQDLQQAGFDEDMVIQALQKTNNRSIEAAIEFISKM [A14Q] | -0.132 ± 0.051
56 | TSEVNPQMLQDLQRAGFDEDMVIQALQKTNNRSIEAAIEFISKM [A14R] | -0.095 ± 0.033
57 | TSEVNPQMLQDLQSAGFDEDMVIQALQKTNNRSIEAAIEFISKM [A14S] | -0.047 ± 0.045
58 | TSEVNPQMLQDLQTAGFDEDMVIQALQKTNNRSIEAAIEFISKM [A14T] | -0.206 ± 0.051

Reference: the Human Domainome abundance scans (Beltran et al. 2025)
